According to paper PMC6136348, “In the quest for new targets for pathogen eradication: the adenylosuccinate synthetase from the bacterium Helicobacter pylori” (Journal of Enzyme Inhibition and Medicinal Chemistry, 2018):

Biological target: the molecule itself
Assay: SEC; Sephacryl S-200 HR column calibrated with marker proteins; 50 mM phosphate buffer pH 6.5, 150 mM NaCl, 2 mM EDTA, 1 mM DTT, +4 °C; sample loaded at ~15 mg/mL total protein (second step of the purification)

B1: Helicobacter pylori adenylosuccinate synthetase (AdSS) (enzyme, Helicobacter pylori (strain ATCC 26695), UniProt P56137 1-411, looked up)
chain: MADVVVGIQWGDEGKGKIVDRIAKDYDFVVRYQGGHNAGHTIVHKGVKHSLHLMPSGVLYPKCKNIISSAVVVSVKDLCEEISAFEDLENRLFVSDRAHVILPYHAKKDAFKEKSQNIGTTKKGIGPCYEDKMARSGIRMGDLLDDKILEEKLNAHFKAIEPFKKAYDLGENYEKDLMGYFKTYAPKICPFIKDTTSMLIEANQKGEKILLEGAQGTLLDIDLGTYPFVTSSNTTSASACVSTGLNPKAINEVIGITKAYSTRVGNGPFPSEDTTPMGDHLRTKGAEFGTTTKRPRRCGWLDLVALKYACALNGCTQLALMKLDVLDGIDAIKVCVAYERKGERLEIFPSDLKDCVPIYQTFKGWEKSVGVRKLDDLEPNVREYIRFIEKEVGVKIRLISTSPEREDTIFL
notes: Adenylosuccinate synthetase (AdSS, EC 6.3.4.4), product of the purA gene of Helicobacter pylori strain ATCC 26695; amplified from genomic DNA with primers for the 5' and the 3' end of the gene; theoretical monomer mass 45,742.72 Da; Cloned between NdeI and XhoI of pET21b; The printed reverse primer appears to carry a stop codon before the XhoI site, so the vector's C-terminal His tag is probably …
  stoichiometry N: 2
